Results on four substances are retold here after US11534528B2, “Sterilization of self-assembling peptides by irradiation” (3-D Matrix, Ltd., priority 2020, dated 2022).

“And” between values parts separate entries of the source, which are not always exact repeats. Equal entries are not always repeated.

A short description of data set [1]: Appearance of peptide solution before and after irradiation. The class given is physicochemical. The conditions noted are these: for appearance and pH, summary: after gamma, X-ray and e-beam irradiation at around 25~40 kGy. As for the experimental part: (§1) Samples were irradiated with gamma rays at 23, 25, 28 and 40 kGy with VPTrad Gammacell 220® High Dose Rate Co-60 Irradiator. In some embodiments, the run dose rate and duration time for 40 kGy irradiation were 6.30 kGy/hr and 6 hours 20 minutes 58 seconds, respectively. In other embodiments, the run dose rate and duration time for 28 kGy irradiation were 4.40 kGy/hr and 6 hours 22 minutes 31 seconds, respectively. In other embodiments, the run dose rate and duration time for 25 kGy irradiation were 6.58 kGy/hr and 3 hours 47 minutes 42 seconds, respectively. In other embodiments, the run dose rate and duration time for 23 kGy irradiation were 6.58 kGy/hr and 3 hours 29 minutes 29 seconds, respectively.
(§2) In other embodiments, samples were irradiated with X-ray at 25 kGy and 40 kGy with a Mevex accelerator (10 MeV, 20 kW).
(§3) In other embodiments, samples were irradiated with e-beam at 25 and 40 kGy with a Mevex accelerator (10 MeV, 20 kW).
(§4) Methods and test results: The appearance of PuraStat® was observed after each test. The pH of PuraStat® was tested using an Accumet AB15 pH meter (Fisher Scientific). HPLC tests were performed to evaluate the major peptide content after irradiation tests. Agilent HPLC 1100 (Agilent Technologies) was used for this study. Column temperature was kept at 25° C.

Data set [2] in a line: pH of peptide solution before and after irradiation. The class given is physicochemical. On the procedure: as §1, §2, §3, §4
The conditions of data set [3]: RADA16 in solution; cited from earlier work.
A short description of data set [4]: Mass spectrometry test for degradation of the peptides. The class given is physicochemical. On the procedure: (§5) Mass spectrometry tests were carried out to investigate the degradation of the peptides after irradiation sterilization. An Agilent LC/MSD ion trap mass spectrometer was used for this study. The sample solutions were prepared as described above for the HPLC samples. Each sample was injected at 9 μL/min with a syringe pump. Each mass spectrum was recorded for 1 minute.
as §5, with “sterilization.” for “sterilization. An”, “Mass” for “Each mass”, “minute. The molecular weight of PuraStat® (Ac-(RADA)4-NH2) (SEQ ID NO:1) is 1712, which matches its calculated molecular weight from the major three peaks at m/3=572, m/2=857, and m=1713 in all the spectra of control and irradiated PuraStat® samples.” for “minute.”

A short description of data set [5]: HPLC test for major peptide content. Type of data set: physicochemical. Particulars: N = 3, mean ± SD. As for the experimental part: HPLC tests were performed to evaluate the major peptide content after irradiation tests. An Agilent HPLC 1100 (Agilent Technologies) was used for this study. The column temperature was kept at 25° C.
For RADA16 (SEQ ID NO:1) samples, solvent A was water with 0.1% TFA and solvent B was 80% acetonitrile with 0.1% TFA. Gradient of solvent B was controlled from 10% to 40% in 20 min and 40% for another 5 min at 25° C. Agilent Zorbax 300SB-C18 column (4.6 mm×250 mm, 5 μm, 300 Å) was used for this test. PuraStat® (RADA16 (SEQ ID NO:1) 2.5%) (40 mg) was mixed with 10 μL of DH2O and the mixture was vortexed. The mixture was further mixed with 500 μL of formic acid and vortexed. This mixture was then mixed with DH2O (4,450 μL) and vortexed. 20 μL samples were injected using an Agilent autosampler.
For IEIK13 (SEQ ID NO:3) samples, solvent A was water with 0.1% TFA and solvent B was 90% Acetonitrile with 0.1% TFA. The gradient of solvent B was controlled from 20% to 43% in 8 min, from 43% to 70% between 8 and 9.5 min, and from 70% to 95% between 9.5 and 30 min, and 95% for another 5 min at 25° C. An Agilent PLRP-S column (4.6 mm×250 mm, 8 μm, 300 Å) was used for this test. A 1.3% solution of IEIK13 (SEQ ID NO:3) was diluted with water with 0.1% TFA to 0.075% and the mixture was vortexed. 35 μL samples were injected using an Agilent autosampler.
For QLEL12 (SEQ ID NO:4) samples, solvent A was water and solvent B was 80% acetonitrile. The gradient of solvent B was controlled from 20% to 80% in 15 min and 80% for another 7 min at 25° C. An Agilent PLRP-S column (4.6 mm×250 mm, 8 μm, 300 Å) was used for this test. 0.15% w/v of QLEL12 (SEQ ID NO:4) solution was diluted to 0.01% with DH2O and vortexed. 50 μL samples were injected using an Agilent autosampler.
as §4
Solvent A was water with 0.1% TFA and solvent B was 80% Acetonitrile with 0.1% TFA. Gradient of solvent B was controlled from 10% to 40% in 20 min and 40% for another 5 min at 25° C. Agilent Zorbax 300SB-C18 column (4.6 mm×250 mm, 5 μm, 300 Å) was used for this test. PuraStat® (RADA16 (SEQ ID NO:1) 2.5%) (40 mg) were mixed with 10 μL of DH2O and 500 μL of formic acid and vortexed. And the mixture was mixed with DH2O (4,450 μL) and vortexed. 20 μL of samples were injected using an Agilent autosampler.
Agilent HPLC 1100 (Agilent Technologies) was used for this study. Column temperature was kept at 25° C. Agilent Zorbax 300SB-C18 column (4.6 mm×250 mm, […], 300 Å) was used for this test. Solvent A was water with 0.1% TFA and solvent B was 80% Acetonitrile with 0.1% TFA. Gradient of solvent B was controlled from 10% to 40% in 20 min and 40% for another 5 min at 25° C. PuraStat® (40 mg) was mixed with 10 μL of DH2O and 500 μL of formic acid and vortexed, and the mixture was mixed with DH2O (4,450 μL) and vortexed. […] of samples were injected using an Agilent autosampler.

The mark [6] stands for this setting: after gamma, X-ray or e-beam irradiation.

For the substance “Ac-KLDLKLDLKLDL-NH2 [KLD12, self-assembling peptide]”, the Appearance result in data set [1] (X-ray irradiation at 25 kGy) was “Clear and viscous”; in data set [1] (X-ray irradiation at 40 kGy), “Clear and viscous”; in data set [1] (control, not irradiated) it was “Clear and viscous”; in data set [1] (e-beam irradiation at 25 kGy) it was “Clear and viscous”; in data set [1] (e-beam irradiation at 40 kGy), “Clear and viscous”; in data set [1] (gamma irradiation at 40 kGy), “Clear and viscous”. The “appearance and pH, summary” value in data set [1] is on record as “remained unchanged”. For the same substance, the pH in data set [2] (X-ray irradiation at 25 kGy) was 2.2; in data set [2] (X-ray irradiation at 40 kGy) it was 2.2; in data set [2] (control, not irradiated) it was 2.2; in data set [2] (e-beam irradiation at 25 kGy) it was 2.2; in data set [2] (e-beam irradiation at 40 kGy) it was 2.2; in data set [2] (gamma irradiation at 40 kGy), 2.2.

As to Ac-RADARADARADARADA-NH2 [RADA16], the “appearance and pH, summary” value in data set [1] was “remained unchanged”. Also, in data set [3], the degradation on autoclaving entry is “complete thermal degradation”. The “degradation by mass spectrometry analysis” value in data set [4] (setting [6]) is “not degraded”; in data set [4] (autoclave treatment (121° C. for 20 min)) it was “completely degraded”. Besides, the “Major peptide content (%)” value was 73.8% in data set [5] (X-ray irradiation at 25 kGy); 71.9% in data set [5] (X-ray irradiation at 40 kGy); 78.3% in data set [5] (control, not irradiated); 76.0% in data set [5] (e-beam irradiation at 25 kGy); 70.0% in data set [5] (e-beam irradiation at 40 kGy); 75.5% in data set [5] (gamma irradiation at 23 kGy). For the same substance, the entries for the “Major peptide content (%)” value in data set [5] (gamma irradiation at 25 kGy), in data set [5] (gamma irradiation at 28 kGy) and in data set [5] (gamma irradiation at 40 kGy) were 74.6%, 68.5% and 69.7%, respectively.

Consider Ac-IEIKIEIKIEIKI-NH2 [IEIK13], for which the Appearance entry in data set [1] (X-ray irradiation at 25 kGy) is “Clear and viscous”; in data set [1] (X-ray irradiation at 40 kGy), “Clear and viscous”; in data set [1] (control, not irradiated) it was “Clear and viscous”; in data set [1] (e-beam irradiation at 25 kGy), “Clear and viscous”; in data set [1] (e-beam irradiation at 40 kGy), “Clear and viscous”; in data set [1] (gamma irradiation at 28 kGy) it was “Clear and viscous”. Also, in data set [1] (gamma irradiation at 40 kGy), the Appearance result is “Clear and viscous”. For the same substance, the “appearance and pH, summary” value in data set [1] was “remained unchanged”. The “degradation by mass spectrometry analysis” value in data set [4] (setting [6]) is given as “only insubstantially degraded”. For the same substance, the pH in data set [2] (X-ray irradiation at 25 kGy) is listed as 3.0; in data set [2] (X-ray irradiation at 40 kGy) it was 3.0; in data set [2] (control, not irradiated), 3.0; in data set [2] (e-beam irradiation at 25 kGy), 3.0; in data set [2] (e-beam irradiation at 40 kGy) it was 3.0; in data set [2] (gamma irradiation at 28 kGy) it was 3.0. In addition, the pH in data set [2] (gamma irradiation at 40 kGy) came out at 3.0. The “Major peptide content (%)” value in data set [5] (X-ray irradiation at 25 kGy) is 99.8% and 99.8 ± 0.1%; in data set [5] (X-ray irradiation at 40 kGy), 99.9% and 99.9 ± 0.1%; in data set [5] (control, not irradiated), 99.6% and 99.6 ± 0.0%; in data set [5] (e-beam irradiation at 25 kGy) it was 99.6% and 99.6 ± 0.2%; in data set [5] (e-beam irradiation at 40 kGy), 99.8% and 99.8 ± 0.1%; in data set [5] (gamma irradiation at 40 kGy), 99.8% and 99.8 ± 0.2%.

For the substance “Ac-QLELQLELQLEL-NH2 [QLEL12, self-assembling peptide, degraded by irradiation]”, the Appearance entry in data set [1] (X-ray irradiation at 25 kGy) was “Clear and watery”; in data set [1] (X-ray irradiation at 40 kGy), “Clear and watery”; in data set [1] (control, not irradiated) it was “Clear and viscous”; in data set [1] (e-beam irradiation at 25 kGy), “Clear and watery”; in data set [1] (e-beam irradiation at 40 kGy), “Clear and watery”; in data set [1] (gamma irradiation at 23 kGy), “Clear and watery”. Moreover, the Appearance result was “Clear and watery” in data set [1] (gamma irradiation at 25 kGy); “Clear and watery” in data set [1] (gamma irradiation at 40 kGy). Moreover, the “degradation by mass spectrometry analysis” value in data set [4] (setting [6]) is “significantly degraded”. The pH in data set [2] (X-ray irradiation at 25 kGy) was 6.3; in data set [2] (X-ray irradiation at 40 kGy) it was 5.9; in data set [2] (control, not irradiated), 7.0; in data set [2] (e-beam irradiation at 25 kGy) it was 6.6; in data set [2] (e-beam irradiation at 40 kGy), 6.5; in data set [2] (gamma irradiation at 23 kGy), 6.7. The pH in data set [2] (gamma irradiation at 25 kGy) worked out at 6.5; in data set [2] (gamma irradiation at 40 kGy), 5.9. Also, the “Major peptide content (%)” value is 57.0% and 57.0 ± 4.9 % in data set [5] (X-ray irradiation at 25 kGy); 47.3% and 47.3 ± 1.3 % in data set [5] (X-ray irradiation at 40 kGy); 90.5% and 90.5 ± 1.3% in data set [5] (control, not irradiated); 51.9% and 51.9 ± 7.3 % in data set [5] (e-beam irradiation at 25 kGy); 55.6% and 55.6 ± 3.0 % in data set [5] (e-beam irradiation at 40 kGy); 40.7% and 40.7 ± 3.1 % in data set [5] (gamma irradiation at 40 kGy).
